These results are taken from US20240368263A1 (PROMETHEUS BIOSCIENCES, published 2024).

Test [1] has as its target T1, human TL1A (endogenous, human whole blood assay) (human, UniProt O95150 1-251, limits assumed).
T1 sequence (looked up): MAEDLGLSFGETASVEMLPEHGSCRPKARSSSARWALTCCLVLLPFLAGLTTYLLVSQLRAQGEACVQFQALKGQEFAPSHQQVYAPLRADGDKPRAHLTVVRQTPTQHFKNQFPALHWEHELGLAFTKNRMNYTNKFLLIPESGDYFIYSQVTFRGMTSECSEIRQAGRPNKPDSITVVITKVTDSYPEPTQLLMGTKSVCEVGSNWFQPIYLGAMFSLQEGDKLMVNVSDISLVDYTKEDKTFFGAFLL
In words: cell-based or functional assay.

Test [2] deals with T2, membrane-associated human TL1A on transfected HEK293 cells (human, UniProt O95150 1-251).
T2 construct: whole, on cells
T2 sequence (looked up): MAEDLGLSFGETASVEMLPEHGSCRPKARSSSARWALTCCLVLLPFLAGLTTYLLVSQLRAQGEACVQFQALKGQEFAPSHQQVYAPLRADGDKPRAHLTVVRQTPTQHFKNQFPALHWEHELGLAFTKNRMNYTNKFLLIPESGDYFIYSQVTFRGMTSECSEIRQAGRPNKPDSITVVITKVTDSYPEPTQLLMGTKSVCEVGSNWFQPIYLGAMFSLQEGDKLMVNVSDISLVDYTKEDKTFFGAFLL
The test can be described thus: flow cytometry, HEK293 cells transfected with human TL1A. On the procedure:
All the Fab variants were tested for binding to membrane-associated human TL1A. For these studies a HEK293 cell line that had been transfected with human TL1A was used. The 293 cells expressing membrane bound human TL1A were maintained in DMEM containing L-glutamine, glucose, sodium pyruvate, and phenol red (ThermoFisher cat #11995-065) plus 10% fetal bovine serum, 1X penicillin-streptomycin (Fisher cat #15140122) and 2 μg/ml puromycin (Gibco cat #A11138-03) in a 37° C. incubator with 5% CO2. Three days prior to the assay, a T-75 flask was seeded with 3×10⁶ cells so that the flask was 90-95% confluent on the day of the assay. The media was aspirated and the cell monolayer was gently washed with 5 ml PBS. Adherent cells were removed by repeatedly pipetting 10 ml ice cold 1% BSA/PBS against the monolayer. The cells were counted and 5×10⁵ were aliquoted for each sample to be analyzed. The cells were collected by centrifuging at 300× g at 4° C. for 5 minutes and the wash was discarded. The cells were resuspended in 100 μl Fab or IgG diluted in 1% BSA/PBS and placed on ice for 30 min. Next, the cells were washed with 1 ml 1% BSA/PBS and collected by centrifuging at 300× g at 4° C. for 5 min. The wash was discarded and 100 μl secondary goat F (ab′) 2 anti-human kappa FITC (Southern Biotech cat #2062-02) or goat F (ab′) 2 anti-human IgG PE (Southern Biotech cat #2043-09) conjugate, diluted 1:200 in BSA/PBS was added. Cells were placed on ice for 30 min. Finally, the cells were washed with 1 ml BSA/PBS, collected by centrifuging at 300× g at 4° C. for 5 min. The wash was removed and the cells were resuspended in 500 μl 1% BSA/PBS. One drop of Sytox AADvanced ReadyFlow Reagent (ThermoFisher cat #R37173) was added per sample and the samples were analyzed on the Attune NXT Flow Cytometer (ThermoFisher).

The target in test [3] is T3, human TL1A (Fitzgerald, Prod. #30R-AT070) (human, UniProt O95150 72-251, limits assumed, biotinylated with EZ-Link Sulfo-NHS-LC-Biotin where used as soluble antigen).
T3 construct: also called TNFSF15; biotinylated human TL1A
T3 sequence (looked up): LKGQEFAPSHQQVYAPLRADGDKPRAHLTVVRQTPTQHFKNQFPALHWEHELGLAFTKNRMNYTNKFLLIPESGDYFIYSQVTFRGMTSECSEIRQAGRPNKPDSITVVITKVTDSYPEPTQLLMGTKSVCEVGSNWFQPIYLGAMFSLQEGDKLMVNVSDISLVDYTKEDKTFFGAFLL
The test can be described thus: two ELISA formats: Fab on coated TL1A; captured Fab with biotinylated TL1A. The method, then:
Fabs with the CDRs shown in Tables 19 to 22 were tested for binding to human TL1A in multiple formats. Next, uniform (saturating) quantities of soluble Fab variants were captured on the surface of an ELISA plate and soluble, biotinylated human TL1A was titrated as shown in FIGS. 10 to 13.

Test [4] addresses LIGHT/TNFSF14 (R&D Systems, cat. no. 664-LI/CF) (UniProt O43557 74-240). The test can be described thus: ELISA, antigen coated at 1 µg/ml, Fab titrated. The method, then:
(§1) Next, all the Fab variants were characterized for their selectivity for human TL1A relative to other TNFSF members TRAIL, LIGHT and Fas. […] The plate was washed 3 times with PBS-T and blocked with 100 μl of 1% BSA/PBS. The block was discarded and the Fab variants or control antibodies (Fas/TNFSF6, R&D Systems, cat. no. AF126; TRAIL/TNFSF10, R&D Systems, cat. no. AF375; LIGHT/TNFSF14, R&D Systems, cat. no. AF664) were titrated in 50 μl 1% BSA/PBS and incubated for 1 h at 25° C. The plate was washed 3 times with PBS-T and secondary HRP-conjugated antibody (diluted 5,000-fold in 1% BSA/PBS) was added for 1 h at 25° C. The plate was washed 3 times with PBS-T and developed.

The target of test [5] is T4, Fas/TNFSF6 (R&D Systems, cat. no. 126-FL/CF) (UniProt P48023 134-281).
T4 sequence (looked up): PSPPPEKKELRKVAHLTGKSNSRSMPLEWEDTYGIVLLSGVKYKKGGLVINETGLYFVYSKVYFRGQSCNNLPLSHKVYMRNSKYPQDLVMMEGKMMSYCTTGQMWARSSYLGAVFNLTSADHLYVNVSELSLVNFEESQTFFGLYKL
The test can be described thus: ELISA, antigen coated at 1 µg/ml, Fab titrated. The method, then:
as §1

Test [6] deals with TRAIL/TNFSF10 (R&D Systems, cat. no. 375-TL/CF) (UniProt P50591 114-281). In words: ELISA, antigen coated at 1 µg/ml, Fab titrated. On the procedure:
as §1

TRAIL/TNFSF10 (R&D Systems, cat. no. 375-TL/CF), sequence (P50591 114-281 limits assumed): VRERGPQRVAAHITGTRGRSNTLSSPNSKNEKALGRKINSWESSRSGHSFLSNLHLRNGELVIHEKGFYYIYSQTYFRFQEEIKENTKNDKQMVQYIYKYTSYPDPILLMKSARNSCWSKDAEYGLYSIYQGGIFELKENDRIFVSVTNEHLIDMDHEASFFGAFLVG
LIGHT/TNFSF14 (R&D Systems, cat. no. 664-LI/CF), sequence (O43557 74-240 limits assumed): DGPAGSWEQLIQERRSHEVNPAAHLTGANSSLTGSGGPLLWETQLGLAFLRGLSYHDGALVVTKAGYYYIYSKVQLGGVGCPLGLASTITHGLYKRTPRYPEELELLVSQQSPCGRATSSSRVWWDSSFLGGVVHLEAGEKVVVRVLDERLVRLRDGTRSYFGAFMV

B1: clone 47, modified IgG1 / kappa (antibody)
heavy: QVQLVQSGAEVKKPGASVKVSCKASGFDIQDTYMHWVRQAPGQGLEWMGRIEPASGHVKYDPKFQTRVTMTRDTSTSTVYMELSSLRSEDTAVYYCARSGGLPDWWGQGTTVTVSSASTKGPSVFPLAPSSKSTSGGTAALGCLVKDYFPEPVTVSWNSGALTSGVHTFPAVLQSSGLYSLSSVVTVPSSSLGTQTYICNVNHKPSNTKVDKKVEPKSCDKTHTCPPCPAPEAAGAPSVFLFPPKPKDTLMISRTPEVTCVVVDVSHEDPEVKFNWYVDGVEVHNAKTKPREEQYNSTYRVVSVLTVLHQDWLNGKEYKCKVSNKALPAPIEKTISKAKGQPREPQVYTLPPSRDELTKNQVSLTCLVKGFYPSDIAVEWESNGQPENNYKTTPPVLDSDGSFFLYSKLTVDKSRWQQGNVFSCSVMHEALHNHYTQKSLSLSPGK
light: EIVLTQSPGTLSLSPGERATLSCRASSSVSYMYWYQQKPGQAPRLLIYATSNLASGIPDRFSGSGSGTDFTLTISRLEPEDFAVYYCQQWEGNPRTFGGGTKLEIKRTVAAPSVFIFPPSDEQLKSGTASVVCLLNNFYPREAKVQWKVDNALQSGNSQESVTEQDSKDSTYSLSSTLTLSKADYEKHKVYACEVTHQGLSSPVTKSFNRGEC
As to B1, the “IC50, inhibition of IFN-γ production, human whole blood assay” value (“IC50, inhibition of IFN-γ production” below) in test [1] amounted to 1.26 nM.

B2: clone 23, IgG2 / kappa (antibody)
heavy: QVQLVQSGAEVKKPGASVKVSCKASGFDIQDTYMHWVRQAPGQGLEWMGRIDPASGHLKYDPKFQNRVTMTRDTSTSTVYMELSSLRSEDTAVYYCARSGGLPDKWGQGTTVTVSSASTKGPSVFPLAPCSRSTSESTAALGCLVKDYFPEPVTVSWNSGALTSGVHTFPAVLQSSGLYSLSSVVTVPSSNFGTQTYTCNVDHKPSNTKVDKTVERKCCVECPPCPAPPVAGPSVFLFPPKPKDTLMISRTPEVTCVVVDVSHEDPEVQFNWYVDGVEVHNAKTKPREEQFNSTFRVVSVLTVVHQDWLNGKEYKCKVSNKGLPAPIEKTISKTKGQPREPQVYTLPPSREEMTKNQVSLTCLVKGFYPSDIAVEWESNGQPENNYKTTPPMLDSDGSFFLYSKLTVDKSRWQQGNVFSCSVMHEALHNHYTQKSLSLSPGK
light: EIVLTQSPGTLSLSPGERATLSCRASSSVSYMYWYQQKPGQAPRLLIYATSNLASGIPDRFSGSGSGTDFTLTISRLEPEDFAVYYCQQWEGNPRTFGGGTKLEIKRTVAAPSVFIFPPSDEQLKSGTASVVCLLNNFYPREAKVQWKVDNALQSGNSQESVTEQDSKDSTYSLSSTLTLSKADYEKHKVYACEVTHQGLSSPVTKSFNRGEC
As to B2, the “IC50, inhibition of IFN-γ production” value in test [1] is 0.33 nM.

B3: clone 34, IgG2 / kappa (antibody)
heavy: QVQLVQSGAEVKKPGASVKVSCKASGFDIQDTYMHWVRQAPGQGLEWMGRIEPASGHIKYDPKFQGRVTMTRDTSTSTVYMELSSLRSEDTAVYYCARSGGLPDWWGQGTTVTVSSASTKGPSVFPLAPCSRSTSESTAALGCLVKDYFPEPVTVSWNSGALTSGVHTFPAVLQSSGLYSLSSVVTVPSSNFGTQTYTCNVDHKPSNTKVDKTVERKCCVECPPCPAPPVAGPSVFLFPPKPKDTLMISRTPEVTCVVVDVSHEDPEVQFNWYVDGVEVHNAKTKPREEQFNSTFRVVSVLTVVHQDWLNGKEYKCKVSNKGLPAPIEKTISKTKGQPREPQVYTLPPSREEMTKNQVSLTCLVKGFYPSDIAVEWESNGQPENNYKTTPPMLDSDGSFFLYSKLTVDKSRWQQGNVFSCSVMHEALHNHYTQKSLSLSPGK
light: EIVLTQSPGTLSLSPGERATLSCRASSSVSYMYWYQQKPGQAPRLLIYATSNLASGIPDRFSGSGSGTDFTLTISRLEPEDFAVYYCQQWEGNPRTFGGGTKLEIKRTVAAPSVFIFPPSDEQLKSGTASVVCLLNNFYPREAKVQWKVDNALQSGNSQESVTEQDSKDSTYSLSSTLTLSKADYEKHKVYACEVTHQGLSSPVTKSFNRGEC
For B3, the “IC50, inhibition of IFN-γ production” value in test [1] was 0.16 nM.

B4: Clone L3-13 Fab (Fab, V domains shown)
VH: QVQLVQSGAEVKKPGASVKVSCKASGFDIQDTYMHWVRQAPGQGLEWMGRIDPASGHTKYDPKFQGRATITTDTSASTAYLQLSSLRSEDTAVYYCARSGGLPDFWGQGTTVTVSS
VL: EIVLTQSPGTLSLSPGERATLSCRASSSVSYMYWYQQKPGQAPRLLIYATSNLASGIPDRFSGSGSGTDFTLTISRLEPEDFAVYYCQQWKGNPRTFGGGTKLEIK
notes: Fab
Turning to B4, the binding result in test [2] is reported as “binds”; in test [3] it was “binds”; in test [4], “no binding”; in test [5], “no binding”; in test [6], “no binding”.

B5: Clone XL3-6 Fab (Fab, V domains shown)
VH: QVQLVQSGAEVKKPGASVKVSCKASGFDIQDTYMHWVRQAPGQGLEWMGRIDPASGHTKYDPKFQGRATITTDTSASTAYLQLSSLRSEDTAVYYCARSGGLPDFWGQGTTVTVSS
VL: EIVLTQSPGTLSLSPGERATLSCRASSSVSYMYWYQQKPGQAPRLLIYATSNLASGIPDRFSGSGSGTDFTLTISRLEPEDFAVYYCSQWSGNPRTFGGGTKLEIK
notes: Fab
Regarding B5, the binding result in test [2] is on record as “binds”; in test [3], “binds”; in test [4] it was “no binding”; in test [5], “no binding”; in test [6], “no binding”.

B6: Clone XL3-15 Fab (Fab, V domains shown)
VH: QVQLVQSGAEVKKPGASVKVSCKASGFDIQDTYMHWVRQAPGQGLEWMGRIDPASGHTKYDPKFQGRATITTDTSASTAYLQLSSLRSEDTAVYYCARSGGLPDFWGQGTTVTVSS
VL: EIVLTQSPGTLSLSPGERATLSCRASSSVSYMYWYQQKPGQAPRLLIYATSNLASGIPDRFSGSGSGTDFTLTISRLEPEDFAVYYCQQWSRNPRTFGGGTKLEIK
notes: Fab
For the molecule B6, the binding result in test [2] was “binds”; in test [3] it was “binds”; in test [4], “no binding”; in test [5], “no binding”; in test [6], “no binding”.

B7: Clone XL3-10 Fab (Fab, V domains shown)
VH: QVQLVQSGAEVKKPGASVKVSCKASGFDIQDTYMHWVRQAPGQGLEWMGRIDPASGHTKYDPKFQGRATITTDTSASTAYLQLSSLRSEDTAVYYCARSGGLPDFWGQGTTVTVSS
VL: EIVLTQSPGTLSLSPGERATLSCRASSSVSYMYWYQQKPGQAPRLLIYATSNLASGIPDRFSGSGSGTDFTLTISRLEPEDFAVYYCQQWSGNPRSFGGGTKLEIK
notes: Fab
On to B7, for which the binding result in test [2] is recorded as “binds”; in test [3], “binds”; in test [4], “no binding”; in test [5], “no binding”; in test [6], “no binding”.

B8: Clone X-V Fab (Fab, V domains shown)
VH: QVQLVQSGAEVKKPGASVKVSCKASGFDIQDTYMHWVRQAPGQGLEWMGRIDPASGHTKYDPKFQVRATITTDTSASTAYLQLSSLRSEDTAVYYCARSGGLPDFWGQGTTVTVSS
VL: EIVLTQSPGTLSLSPGERATLSCRASSSVSYMYWYQQKPGQAPRLLIYATSNLASGIPDRFSGSGSGTDFTLTISRLEPEDFAVYYCQQWSGNPRTFGGGTKLEIK
notes: Fab
On to B8, for which the binding result was “binds” in test [2]; “binds” in test [3]; “no binding” in test [4]; “no binding” in test [5]; “no binding” in test [6].
